Test results as given in IntAct's records for PubMed 33758649.

B1: Protein PALS1 (Homo sapiens), Q8N3R9 (parent)
chain: MTTSHMNGHVTEESDSEVKNVDLASPEEHQKHREMAVDCPGDLGTRMMPIRRSAQLERIRQQQEDMRRRREEEGKKQELDLNSSMRLKKLAQIPPKTGIDNPMFDTEEGIVLESPHYAVKILEIEDLFSSLKHIQHTLVDSQSQEDISLLLQLVQNKDFQNAFKIHNAITVHMNKASPPFPLISNAQDLAQEVQTVLKPVHHKEGQELTALLNTPHIQALLLAHDKVAEQEMQLEPITDERVYESIGQYGGETVKIVRIEKARDIPLGATVRNEMDSVIISRIVKGGAAEKSGLLHEGDEVLEINGIEIRGKDVNEVFDLLSDMHGTLTFVLIPSQQIKPPPAKETVIHVKAHFDYDPSDDPYVPCRELGLSFQKGDILHVISQEDPNWWQAYREGDEDNQPLAGLVPGKSFQQQREAMKQTIEEDKEPEKSGKLWCAKKNKKKRKKVLYNANKNDDYDNEEILTYEEMSLYHQPANRKRPIILIGPQNCGQNELRQRLMNKEKDRFASAVPHTTRSRRDQEVAGRDYHFVSRQAFEADIAAGKFIEHGEFEKNLYGTSIDSVRQVINSGKICLLSLRTQSLKTLRNSDLKPYIIFIAPPSQERLRALLAKEGKNPKPEELREIIEKTREMEQNNGHYFDTAIVNSDLDKAYQELLRLINKLDTEPQWVPSTWLR

Variants of: B1
Settings: with vemp_sars2 E

Variant | effect of a mutation on the interaction
F318W | increasing interaction strength
